No end group written: not given here.
B1: anticancer peptide GJ101 (peptide)
peptide: LYDVA
notes: Synthesised by solid phase peptide synthesis and purified by RP-HPLC to 95% or more; said to consist of 5 amino acids and to be derived from H-REV107; also called mutant KRAS-targeting anticancer peptide

How the values were obtained:
AsPC-1 cells = format: cell-based; conditions: 48 h
Method: Through 3-(4,5-dimethylthiazol-2-yl)-2,5-diphenyltetrazolium bromide (MTT) analysis, an effect of the anticancer peptide GJ101 on the cell viability of cancer cells was examined. For the cell viability analysis, AsPC-1 cells as a pancreatic cancer cell line were used. The pancreatic cancer cell line was prepared by dispensing the pancreatic cancer cell line at 1×10^3 cells/well (100 μL) and adhering thereto. To treat the anticancer peptide GJ101, the medium of the cells was replaced with a new medium (RPMI-1640). The pancreatic cancer cell lines with different adhering times were treated with the anticancer peptide GJ101 while increasing a concentration gradient, respectively. The pancreatic cancer cells treated with the anticancer peptide GJ101 were incubated for 24 or 48 hours, respectively. Each incubated pancreatic cancer cell was added with an MTT solution (5 mg/mL) and incubated for 90 minutes. After the end of the incubation, an optical density (OD) of pancreatic cancer cells was measured at 540 nm using a microplate reader (Molecular Devices, USA), and a maximum concentration (GI50) at which the growth of pancreatic cancer cells was reduced by half was confirmed. The result of examining the effect of the anticancer peptide GJ101 on the cell viability of tumor cells was illustrated in FIG. 5.

[1] = body weight and general condition in cancer animal model; format: in vivo; conditions: GJ101 25 mg/kg or 50 mg/kg
Method: To prepare a cancer animal model, AsPC-1 cells as a pancreatic cancer cell line were prepared by dissociation in a Hanks' balanced salt solution (HBSS) and a materigel. The prepared AsPC-1 cells were transplanted into the right flank of a nude mouse at an amount of 2×10^6 cells/10 μL/animal to prepare a cancer animal model.
For an experiments to be described later, the anticancer peptide GJ101 was administered at a concentration of 25 mg/kg or 50 mg/kg from day 16 after the preparation of the cancer animal model. In addition, a control group (Vehicle) was treated with 10% DMSO, 40% PEG400, and 50% DW.
A drug was administered to a cancer animal model, and then the body weight of the individual was measured once a day, and the result were illustrated in FIG. 6.

KRAS G12V protein [2] = target: T1, KRAS G12V protein (UniProt P01116-2 1-188, limits assumed); experiment: ITC, calculated from K and ΔH
T1 construct: also called mutant KRAS G12V; mutant Kirsten-RAS
Method: (§1) In order to examine the affinity of the anticancer peptide GJ101 to the KRAS G12V protein, isothermal titration heat was measured using isothermal titration calorimetry (ITC). Specifically, the KRAS G12V protein was prepared by dialysis with a buffer [20 mM Tris-HCl (pH 7.4), 100 mM NaCl, and 2 mM MgCl₂] so that the final concentration of the KRAS G12V protein was 0.1 mM. Next, the anticancer peptide GJ101 was prepared by diluting the anticancer peptide GJ101 to a concentration of 1.0 mM using the same buffer as described above. Isothermal titration heat measurement was performed by injecting the prepared KRAS G12V protein and anticancer peptide GJ101 into isothermal titration calorimetry. In the isothermal titration heat measurement, the anticancer peptide GJ101 was injected 20 times at 25° C. while stirring at a rate of 1,000 rpm. ΔS was calculated from a standard thermodynamic equation using the calculated K and ΔH values. The results of isothermal titration calorimetry were illustrated in FIG. 3.

KRAS G12V protein [3] = target: T1, KRAS G12V protein; experiment: ITC, GJ101 (1.0 mM) injected into KRAS G12V (0.1 mM), 25 °C
Method: as §1

| Molecule | GI50 (AsPC-1 cells) [µM] | moribund state or behavioral abnormalities [1] | ΔS (KRAS G12V protein [2]) [cal/mol/deg] | Ka (KRAS G12V protein [3]) [M⁻¹] | Kd (KRAS G12V protein [3]) [µM] | ΔH (KRAS G12V protein [3]) [kcal/mol] |
| --- | --- | --- | --- | --- | --- | --- |
| LYDVA [GJ101] | 16 | not observed |  |  |  |  |
| B1 |  |  | 19.3 | 86500 | 12 | -0.994 |
